Experimental findings from patent publication US10434074B2, “Peptide and small molecule agonists of EPHA and uses thereof” (CASE WESTERN RESERVE UNIVERSITY, priority 2004, dated 2019) are described below.

Entries after “also recorded” stand apart in the source; their conditions may differ.

The subject of test [1] is DU-145 cells. As to the kind of experiment: MatriGel invasion assay. Format: cell-based, human. Particulars: 24 hours. As for the experimental part: FIG. 3 illustrates EphA activation inhibited DU-145 cell invasion. DU-145 cells were placed in the upper chamber of MatriGel-coated Transwell. Fc, ephrin-A1-Fc, HGF/SF/Fc or HGF/SF/ephrin-A1-Fc, were added in the lower chamber. After 24 hours, cells invading through MatriGel and migrated to the undersides of membrane were counted. Representative results (mean±S.D.) from three independent experiments are shown.
For invasion assay, the upper chamber was coated with 50 μg of growth factor-reduced MatriGel (BD) according to manufacturer's instructions. The same procedure as in migration assay was followed, except that the cells were allowed 24 hours to migrate to the underside of the membranes.

Test [2] concerns primary keratinocytes. As to the kind of experiment: Clonal growth of primary keratinocytes. Format: cell-based, mouse. The procedure: FIGS. 43(A-C) illustrate EphA2 kinase is required for ephrin-A1-induced inhibition of ERK1/2 MAP kinase and growth suppression in primary keratinocytes. A) EphA kinase activation by ephrin-A1 in EphA2^+/+ and EphA2^+/− but not EphA2^−/− keratinocytes. Keratinocytes were isolated from newborn (P1) mice and cultured on matrigel-coated culture plates. They were stimulated with 1.0 μg/ml of ephrin-A1-Fc for 10 min. The unstimulated cells were used as control. EphA receptors including EphA2 were precipitated from the cell lysates using ephrin-A1-Fc, and were subjected to immunoblot analysis with rabbit polyclonal anti-phospho-EphA/B antibody. Membrane was stripped and blotted again for total EphA2. B) Ephrin-A1 stimulation leads to inactivation of ERK1/2 MAPK in EphA2^+/+ and EphA2^+/− but not EphA2^−/− keratinocytes. Total cell lysates were analyzed by immunoblot with the indicated antibodies. The band densities from p-ERK blot were normalized to the corresponding total ERK1 blot. The ratios of p-ERK between ephrin-A1-treated and untreated were shown in the lower panel. C). Ephrin-A1 stimulation inhibits clonal growth of EphA2^+/+ and EphA2^+/− but not EphA2^−/− keratinocytes. Primary keratinocytes were plated on 6-well plates coated with matrigel at 5,000 cells/well, and allowed to grow for 12 days in the presence of Fc (0.5 μg/ml) or ephrin-A1-Fc (1.0 μg/ml).

The test system of test [3] is E-cadherin. The test can be described thus: E-cadherin immunoblot and immunofluorescence. Format: cell-based, human. The procedure:
FIGS. 5(A-E) illustrate (A) Ephrin-A1 co-stimulation inhibited the loss of E-cadherin induced by HGF/SF. DU-145 cells were treated as indicated for 24 or 48 hours. Cell lysates were subject to anti-E-cadherin immunoblot. Same membrane was stripped and blotted with anti-ERK1 as loading control. Relative intensity of E-cadherin=intensities of E-cadherin band/intensity of ERK band. (B) Immunofluorescent staining of E-cadherin after 24 hours of the indicated treatment. Note almost exclusive cytoplasmic staining pattern in HGF/SF treated cells, while cotreatment with ephrin-A1 restored significant levels of E-cadherin at cell-cell junction. (C) Ephrin-A1-Fc pre-treatment preserved E-cadherin expression in HGF/SF treated cells. DU-145 cells were pre-treated with Fc or ephrin-A1-Fc for 24 hours. HGF/SF was then added. The cells were cultured for another 24 hours and lysed for anti-E-cadherin immunoblot. Anti-ERK1 was used as loading control. (D) Cells grown on cover slips received same treatment as in C were subject to anti-E-cadherin immunofluorescence analysis. Note the significant preservation of E-cadherin localization at cell-cell adhesion site by ephrin-A1-Fc compared with Fc control. (E) Numbers of total cells and cells without contact with other cells were counted in 6-8 randomly chosen fields. * Fc/HGF/SF vs. ephrin-A1-Fc/HGF/SF: p=4.6×10^−7.
Cells were cultured on cover slips in 24-well dishes for 24 hours, fixed in 4% formaldehyde for 20 minutes and permeabilized with 0.5% NP-40 for 10 minutes. Blocking was performed using blocking solution containing 2% BSA and 2% goat serum in PBS. Subsequently, cells were incubated with 1 μg/ml anti-EphA2 or anti-E-cadherin antibody. A Texas Red-conjugated goat anti-rabbit IgG or FITC-conjugated rabbit anti-mouse IgG was used to visualize the primary antibodies. Vector-Shield mounting solution containing DAPI (Vector Laboratories) was used to mount the cover slips onto slides.
Cells cultured in 6 well plates at 70-80% confluence were stimulated with 0.5 μg/ml Fc, 1 μg/ml epnrinA1-Fc or 20 ng/ml HGF/SF or their combinations as indicated. After stimulation, cells were lysed in RIPA buffer (20 mM Tris, pH7.4, 125 mM NaCl, 20 mM NaF, 0.1% SDS, 10% glycerol, 0.5% sodium deoxycholate, and 1% TX-100, 0.5 mM Na3VO4) containing protease inhibitors (1 mM phenylmethylsulphonyl fluoride, and 2 μg/ml each of aprotinin and leupeptin). Cell lysates were clarified by centrifugation at 13,000 rpm for 5 min. Immunoprecipitation was carried out by adding anti-EphA2 antibody to clarified cell lysates and incubated for 1 hour at 4° C. The immunocomplex was captured using γ-bind beads (Pharmacia). Cell lysates or precipitated proteins were separated on 4-20% Tris-glycine gels (Invitrogen) and transferred to Immobilon-P PVDF membranes (Millipore). […] For quantitative analysis, band densities were measured using KODAK 1D imagine analysis software (Eastman Kodak Company).

For test [4], the system named is DU-145 cells. The test can be described thus: HGF/SF-induced cell scattering / EMT. Format: cell-based, human. The procedure:
FIGS. 4(A-B) illustrate EphA activation attenuated cell scattering induced by HGF/SF. DU-145 cells were cultured in the presence of indicated reagents. Cell morphology was recorded 24 and 48 hours after the initiation of treatments (A). Numbers of total cells and cells without contact with other cells were counted in 6-8 randomly chosen fields (B). * HGF/SF/Fc vs. HGF/SF/ephrinA1-Fc: p<10^−5.
Tumor cells scattering/detaching from primary tumors is considered as the first step in tumor metastasis. In addition to promoting cell migration and invasion, HGF/SF is known to disrupt cell-cell adhesion mediated by E-cadherin, induce epithelial-mesenchymal transition (EMT) and cause cell scattering. Therefore, we examined the effects of EphA2 activation on EMT and scattering induced by HGF/SF. DU-145 cells were treated with Fc (control) or ephrin-A1-Fc in the presence or absence of HGF/SF. Cell morphology was recorded 24 and 48 hours after the addition of stimuli (FIGS. 4A and B). In control Fc-treated cells, only about 5% of cells were found as individual cells with no direct contact with neighboring cells, while remaining cells aggregate to form colonies with typical epithelial morphology. […] Following 24 hour HGF treatment, most of cells underwent EMT characterized by detachment from each other and transformation into spindle-shaped fibroblastic morphology. […]

B1: ephrin-A1-Fc: ephrin-A1 dimerized by fusion to the heavy chain of human IgG1 (protein)
chain: DRHTVFWNSSNPKFRNEDYTIHVQLNDYVDIICPHYEDHSVADAAMEQYILYLVEHEEYQLCQPQSKDQVRWQCNRPSAKHGPEKLSEKFQRFTPFTLGKEFKEGHSYYYISKPIHQHEDRCLRLKVTVSGKITHSPQAHDNPQEKRLAADDPEVRVLHSIGHS
modifications: left off: a dimerising Fc or GST
notes: ephrin-A1 dimerized by fusion to the heavy chain of human IgG1
Regarding B1, in test [1], the HGF/SF-induced cell invasion result is reported as “significantly reduced” and the basal cell invasion entry is recorded as “marginally reduced the basal cell invasion”. Besides, the clonal growth result in test [2] (EphA2 knockout keratinocytes) is reported as “resistant to ephrin-A1-induced growth inhibition”. Besides, the clonal growth entry in test [2] (wild type and heterozygous, 1.0 μg/ml, 12 days) was “suppressed the growth of wild type and heterozygous keratinocytes”. In addition, the “total E-cadherin, 24 hours pretreatment before HGF/SF” value in test [3] (immunoblot) was “significantly prevented HGF/SF-induced down-regulation of total cellular E-cadherin”. Besides, in test [3] (immunoblot, 24 or 48 hours), the “total E-cadherin on co-treatment with HGF/SF” value is recorded as “significantly preserved”. For the same molecule, in test [3] (immunofluorescence), the “E-cadherin at cell-cell junction, 24 hours pretreatment before HGF/SF” value is “significant fraction of E-cadherin was retained at cell-cell junction” and the “E-cadherin at cell-cell junctions on co-treatment with HGF/SF” value was “dramatically retained”. In addition, the E-cadherin expression result in test [3] (ligand alone vs Fc, immunoblot) is recorded as “moderately increased E-cadherin expression; also recorded: increased E-cadherin expression at 48 hours”. The “fraction of scattered cells” value in test [4] (24 hour HGF treatment, 95% with HGF and Fc) amounted to 15%. Further, the cell morphology entry in test [4] (without HGF/SF) was “more compact cobblestone morphology”.
